Data taken from the RNAGym collection of RNA variant scans (doi:10.7554/elife.80360).

B1: HDV Ribozyme (parent)
chain: GGCCGGCAUGGUCCCAGCCUCCUCGCUGGCGCCGGCUGGGCAACAUUCCGAGGGGACCGUCCCCUCGGUAAUGGCGAAUGGGACCCA

Variants of: B1
Assay: self-cleavage, relative activity (ratio to wild type); higher = more cleavage; co-transcriptional

In order of falling self-cleavage:
1. G1U C3U  0.696
2. G1U C3A  0.654
3. G1U U9C  0.554
4. G1U C63U  0.535
5. G1U U27G  0.522
6. G1U U12C  0.499
7. G1U U72A  0.466
8. G1U A45C  0.453
9. G1U C63G  0.453
10. G1U C62U  0.443
11. G1U A45U  0.441
12. G1U C22A  0.441
13. G1U C33U  0.436
14. G1U C14U  0.434
15. G1U U12A  0.434
16. G1U G6U  0.429
17. G1U A43C  0.425
18. G1U G81U  0.41
19. G1U C24U  0.409
20. G1U C84A  0.408
21. G1U A87C  0.408
22. G1U U47G  0.405
23. G1U A42G  0.403
24. G1U U9G  0.399
25. G1C U47C  0.399
26. G1U C21A  0.397
27. G1C G54U  0.396
28. G1U C63A  0.391
29. G1U C62G  0.391
30. G1U U9A  0.389
31. G1U U12G  0.369
32. G1U G76U  0.359
33. G1U G74U  0.358
34. G1A C66U  0.353
35. G1A G10C  0.35
36. G1U C21U  0.348
37. G1C G50C  0.342
38. G1U A42C  0.332
39. G1U A87G  0.332
40. G1U G81C  0.326
41. G1U C21G  0.312
42. G1C C58A  0.297
43. G1U A45G  0.291
44. G1U U20A  0.289
45. G1U C86G  0.289
46. G1U C26A  0.288
47. G1U G74A  0.288
48. G1U U20G  0.285
49. G1C C62U  0.282
50. G1U U46C  0.277
51. G1C G50A  0.277
52. G1U G76C  0.277
53. G1C C86G  0.268
54. G1U G74C  0.262
55. G1C G54C  0.26
56. G1C A71C  0.256
57. G1C G2U  0.256
58. G1C A83U  0.252
59. G1C C57U  0.252
60. G1U C33G  0.248
61. G1U C62A  0.248
62. G1C C64G  0.244
63. G2A A56G  0.242
64. G1U U72C  0.237
65. G1C U79A  0.237
66. G1C G50U  0.231
67. G1C C64A  0.231
68. G1C C41U  0.229
69. G1A C84U  0.229
70. G1C C75U  0.227
71. G1U A43U  0.225
72. G1C C57G  0.222
73. G1U C86U  0.212
74. G1C C66U  0.208
75. G1A U79A  0.208
76. G1C C22A  0.203
77. G1C C19A  0.201
78. G1C C58G  0.199
79. G1C A45G  0.192
80. G1U G35C  0.191
81. G1C C66A  0.19
82. G1C C75G  0.178
83. G1C U79C  0.177
84. G1C U12C  0.175
85. G1C C15G  0.166
86. G1A U37A  0.161
87. G1A G35U  0.158
88. G1A G10U  0.153
89. G1A G10A  0.151
90. G1C A83G  0.151
91. G1U A43G  0.147
92. G1C C49U  0.145
93. G1A U47A  0.145
94. G1C G10U  0.143
95. G1C C24A  0.142
96. G1A G52A  0.138
97. G1C G2A  0.138
98. G1A G31A  0.131
99. G1C A16C  0.128
100. G1C U37C  0.128
101. G1C C66G  0.128
102. G1C U23A  0.128
103. G1A U47C  0.128
104. G1C C41A  0.123
105. G1A U79C  0.119
106. G1A U27C  0.119
107. G1A G55C  0.115
108. G1C A16U  0.111
109. G1C G67C  0.111
110. G1C G55A  0.106
111. G1C U9G  0.104
112. G1A C85G  0.101
113. G1A G68A  0.101
114. G1C C62A  0.101
115. G1A G35A  0.101
116. G1A G11U  0.0992
117. G1A G68C  0.0978
118. G1C C86A  0.0978
119. G1A C84G  0.0978
120. G1C G82U  0.095
121. G1C G67A  0.0898
122. G1C C63U  0.0898
123. G1C C49G  0.0898
124. G1C C62G  0.0831
125. G1A G11A  0.0779
126. G2A A8G  0.0773
127. G1A C85U  0.0755
128. G1C G25A  0.0755
129. G1C G67U  0.0739
130. G1C G34U  0.0692
131. G1C G74A  0.0678
132. G1C G25U  0.0665
133. G1C A42C  0.0639
134. G1A C75U  0.0639
135. G1C A78G  0.0573
136. G1A G55A  0.0519
137. G1C G39C  0.0519
138. G1C G82C  0.0504
139. G1C G80U  0.0484
140. G1C C24G  0.0462
141. G1A G81A  0.0462
142. G1C G80A  0.0405
143. G1C C13A  0.0386
144. G1A G28A  0.0332
145. G1A G31C  0.0292
146. G1C C22G  0
147. G1C U37G  0
148. G1C G5C  0
149. G1C C4G  0
150. G1A G31U  0
151. G1C A45U  0
152. G1A U27A  0
153. G1C U9C  0
154. G1A U23C  0
155. G1C C33U  0
156. G1C C33G  0
157. G1C G31C  0
158. G1C A71G  0
159. G1A U47G  0
160. G1C G74C  0
161. G1A G39C  0
162. G1C C15A  0
163. G1C U65A  0
164. G1C U65G  0
165. G1C C19G  0
166. G1C U72G  0
167. G1A C84A  0
